Sequences and labels used below:
T1: EsCas13d, nuclease-dead (Eubacterium siraeum, UniProt B0MS50, R295A;H300A;R849A;H854A)
T1 sequence: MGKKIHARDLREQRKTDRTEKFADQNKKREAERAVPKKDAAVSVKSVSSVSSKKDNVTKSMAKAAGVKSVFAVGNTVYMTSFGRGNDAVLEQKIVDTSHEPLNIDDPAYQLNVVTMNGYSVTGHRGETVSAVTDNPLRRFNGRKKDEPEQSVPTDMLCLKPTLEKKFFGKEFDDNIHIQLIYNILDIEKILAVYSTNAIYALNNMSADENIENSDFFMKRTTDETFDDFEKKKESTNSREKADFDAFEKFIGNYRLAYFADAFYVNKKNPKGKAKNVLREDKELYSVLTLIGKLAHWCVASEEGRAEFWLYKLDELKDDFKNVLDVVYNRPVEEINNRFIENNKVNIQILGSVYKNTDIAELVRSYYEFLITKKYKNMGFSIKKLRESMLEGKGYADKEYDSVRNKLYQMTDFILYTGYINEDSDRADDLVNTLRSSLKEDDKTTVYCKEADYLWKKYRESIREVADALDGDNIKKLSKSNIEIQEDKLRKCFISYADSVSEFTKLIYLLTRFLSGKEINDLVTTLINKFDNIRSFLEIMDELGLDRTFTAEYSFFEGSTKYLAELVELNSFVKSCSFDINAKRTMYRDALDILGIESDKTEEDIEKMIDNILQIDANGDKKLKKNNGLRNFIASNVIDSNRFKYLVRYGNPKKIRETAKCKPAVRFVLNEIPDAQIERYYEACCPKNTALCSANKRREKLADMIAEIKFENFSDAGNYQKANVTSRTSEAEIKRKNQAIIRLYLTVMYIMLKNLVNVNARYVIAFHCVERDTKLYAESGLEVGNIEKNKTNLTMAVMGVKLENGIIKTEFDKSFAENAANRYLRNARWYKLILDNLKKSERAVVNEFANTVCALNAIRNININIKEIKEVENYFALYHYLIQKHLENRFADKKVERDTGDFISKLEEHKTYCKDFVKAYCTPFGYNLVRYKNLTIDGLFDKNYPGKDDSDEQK

B1: target 1 U11G,C22U (mixed)
RNA 1: CACCCGUGCAAAAAUGCAGGGGUCUAAAACUGAGCGGAUAACCUCUCUAUGG
RNA 2: GGGAAUGGAUCCACAUCUACGAAUUCGUAUCAUAGAGAGGGUAUCCGCUCACCGAGAUCGGAAGAGCACACGU
B2: target 1 A1U,U10A (mixed)
RNA 1: B1 RNA 1
RNA 2: B1 RNA 2 with U30C, G41U, U42A, A51U
B3: target 1 insA 3' of 7,insA 3' of 6 (mixed)
RNA 1: B1 RNA 1
RNA 2: GGGAAUGGAUCCACAUCUACGAAUUCGUACCAUAGAGAGGUUAUCACAGCUCACCGAGAUCGGAAGAGCACACGU
B4: target 1 insA 3' of 21,insA 3' of 7 (mixed)
RNA 1: B1 RNA 1
RNA 2: GGGAAUGGAUCCACAUCUACGAAUUCGUACCAAUAGAGAGGUUAUCACGCUCACCGAGAUCGGAAGAGCACACGU
B5: target 1 insG 3' of 18,insA 3' of 17 (mixed)
RNA 1: B1 RNA 1
RNA 2: B3 RNA 2 with A36G, G37A, G40A, U41G, U42G, A43U, C45A, A46U, A48C
B6: target 1 C7U,G15C (mixed)
RNA 1: B1 RNA 1
RNA 2: B1 RNA 2 with U30C, G37C, G41U, C45U
B7: target 1 insC 3' of 15,insA 3' of 12 (mixed)
RNA 1: B1 RNA 1
RNA 2: B3 RNA 2 with A38C, G39A, U41G, U42A, A43U, C45A, A46U, A48C
B8: target 1 U3A,G12U (mixed)
RNA 1: B1 RNA 1
RNA 2: B1 RNA 2 with U30C, G40U, G41U, U49A
B9: target 1 insC 3' of 22,insU 3' of 2 (mixed)
RNA 1: B1 RNA 1
RNA 2: B4 RNA 2 with A32C, A47C, C48G, G49C, C50U, U51C, C52U
B10: target 1 insU 3' of 7,insA 3' of 4 (mixed)
RNA 1: B1 RNA 1
RNA 2: B3 RNA 2 with A46U, A48G, G49C, C50A
B11: target 1 G13U,C22U (mixed)
RNA 1: B1 RNA 1
RNA 2: B1 RNA 2 with G39U, G41U
B12: target 1 insA 3' of 4,insC 3' of 3 (mixed)
RNA 1: B1 RNA 1
RNA 2: B3 RNA 2 with A46C, C47G, A48C, G49A, C50U, U51C
B13: target 1 insU 3' of 22,insU 3' of 15 (mixed)
RNA 1: B1 RNA 1
RNA 2: B4 RNA 2 with C31U, A32C, A39U, G40A, U42G, A44U, U45A, C46U, A47C
B14: target 1 insA 3' of 17,insG 3' of 16 (mixed)
RNA 1: B1 RNA 1
RNA 2: B3 RNA 2 with G37A, A38G, G40A, U41G, U42G, A43U, C45A, A46U, A48C
B15: target 1 G13A,U19A (mixed)
RNA 1: B1 RNA 1
RNA 2: B1 RNA 2 with U30C, U33A, G39A, G41U
B16: target 1 insC 3' of 18,insG 3' of 10 (mixed)
RNA 1: B1 RNA 1
RNA 2: B4 RNA 2 with A33U, U34A, A35C, A44G, U45A, C46U, A47C
B17: target 1 insA 3' of 19,insA 3' of 10 (mixed)
RNA 1: B1 RNA 1
RNA 2: B4 RNA 2 with A33U, U34A, U45A, C46U, A47C
B18: target 1 insA 3' of 22,insC 3' of 3 (mixed)
RNA 1: B1 RNA 1
RNA 2: B4 RNA 2 with C31A, A32C, A47C, C48G, G49C, C50U, U51C
B19: target 1 insG 3' of 18 (mixed)
RNA 1: B1 RNA 1
RNA 2: GGGAAUGGAUCCACAUCUACGAAUUCGUACCAUAGGAGAGGUUAUCCGCUCACCGAGAUCGGAAGAGCACACGU
B20: target 1 insG 3' of 11,insU 3' of 5 (mixed)
RNA 1: B1 RNA 1
RNA 2: B3 RNA 2 with U42G, A43U, U44A, C45U, A46C, A48G, G49U
B21: target 1 insC 3' of 9,insU 3' of 9 (mixed)
RNA 1: B1 RNA 1
RNA 2: B3 RNA 2 with U44C, C45U, A46U, A48C
B22: target 1 insG 3' of 9,insA 3' of 3 (mixed)
RNA 1: B1 RNA 1
RNA 2: B3 RNA 2 with U44G, C45U, A46C, A48G, G49C, C50U, U51A
B23: target 1 G17U,C21U (mixed)
RNA 1: B1 RNA 1
RNA 2: B1 RNA 2 with U30C, C31U, G35U, G41U
B24: target 1 G5C,C7G (mixed)
RNA 1: B1 RNA 1
RNA 2: B1 RNA 2 with U30C, G41U, C45G, G47C
B25: target 1 insU 3' of 5,insU 3' of 4 (mixed)
RNA 1: B1 RNA 1
RNA 2: B3 RNA 2 with A46C, C47G, A48U, G49C, C50U
B26: target 1 del9,del18 (mixed)
RNA 1: B1 RNA 1
RNA 2: GGGAAUGGAUCCACAUCUACGAAUUCGUACCAUGAGAGGUUUCCGCUCACCGAGAUCGGAAGAGCACACGU
B27: target 1 U10A,U19A (mixed)
RNA 1: B1 RNA 1
RNA 2: B1 RNA 2 with U30C, U33A, G41U, U42A
B28: target 1 G13A,A16G (mixed)
RNA 1: B1 RNA 1
RNA 2: B1 RNA 2 with U30C, A36G, G39A, G41U
B29: target 1 complement block 2-6 (mixed)
RNA 1: B1 RNA 1
RNA 2: B1 RNA 2 with U30C, G41U, C46G, G47C, C48G, U49A, C50G
B30: target 1 insC 3' of 15,insA 3' of 13 (mixed)
RNA 1: B1 RNA 1
RNA 2: B3 RNA 2 with A38C, G39A, U41A, U42G, A43U, C45A, A46U, A48C
B31: target 1 C6U,A18U (mixed)
RNA 1: B1 RNA 1
RNA 2: B1 RNA 2 with U30C, A34U, G41U, C46U

Substitutions are numbered along the chain they refer to. Numbers in names are those of the source.

This data set has as its target T1, EsCas13d, nuclease-dead. The experiment in a line: crRNA (strand 1, pre-loaded); Mg2+; 40 mM Tris-HCl pH 7.5, 150 mM NaCl, 6 mM MgCl2, 1 mM DTT, 0.1% Tween-20, 0.2 mg/ml BSA; 25 C; 10 min per concentration, then washed. The following applies: tags: His6-TwinStrep-SUMO cleaved; N-terminal SNAP kept (SNAP-Surface 488); label: 3' end held by stalled T7 RNA polymerase.
Consider B1, for which the Kd came to 42 ± 7 nM. Next, B2: 8.8 ± 0.4 nM; B3: 7.46 ± 0.33 nM.

As to B4, the affinity, expressed as Kd, was 12.6 ± 0.8 nM. Next, B5: 53 ± 8 nM. In the case of B6, the dissociation constant (Kd) was found to be 48 ± 7 nM. Next, B7: 77 ± 24 nM. Next, B8: 7.58 ± 0.34 nM; B9: 23 ± 4 nM; B10: 9.7 ± 0.7 nM. As for B11, the figure is 82 ± 27 nM; as for B12, 19.9 ± 2.5 nM; as for B13, 34 ± 6 nM.

The molecule B14 had a Kd of 18.7 ± 1.5 nM. The molecule B15 gave a Kd of 38 ± 6 nM.

In turn, B16 showed a Kd of about 70 nM. Next, B17: 30.7 ± 1.4 nM; B18: 16.1 ± 2.5 nM.

On to B19, for which the Kd came out at 48 ± 5 nM. In turn, B20 displayed a Kd of 39 ± 5 nM. Next, B21: 7.9 ± 0.9 nM; B22: 10.3 ± 0.8 nM.

Take B23: binding was characterised by a dissociation constant (Kd) of 12 ± 0.9 nM. Next, B24: 15.8 ± 0.9 nM; B25: 17.8 ± 2.9 nM; B26: 100 ± 50 nM. As for B27, the figure is 48 ± 7 nM; as for B28, 30 ± 4 nM. As for B29, the figure is 12.3 ± 0.5 nM; as for B30, 27.6 ± 2.8 nM. Turning to B31, the Kd came out at 25.8 ± 2 nM.
